Reference: the supplement of paper PMC9732359
± gives the uncertainty stated by the source.

Assay: protein stability index of a GFP-peptide fusion (yeast GPS) (PSI 1-4); higher = more stable; sorted into four equal gates, so the index is relative within each strain
Procedure, shortened: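 Tiled 17-residue peptides from yeast proteins were fused downstream of GFP on a plasmid that also expresses Cherry, and the pooled library was carried in yeast. Mid-log cultures grown in leucine-free medium were sorted into four equal gates by GFP/Cherry fluorescence ratio. Plasmids from each gate were PCR-amplified and Illumina-sequenced, and reads were assigned to strains by barcodes. Each peptide's protein stability index is the sum, over gates, of the gate's read frequency multiplied by its gate number.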

| Sequence | protein stability index (doa10∆) | protein stability index (pdr5∆) | protein stability index (san1∆) | protein stability index (ubr1∆) |
| --- | --- | --- | --- | --- |
| TTAVEDEDDDLDEDDVN [RPB4] | 3.5 ± 0.11 | 3.27 ± 0.1 | 3.55 ± 0.15 | 3.3 ± 0.093 |
| YGFSNKEYISRLWHTLK [SNF5] | 1.57 ± 0.098 | 2.56 ± 0.21 | 2.39 ± 0.2 | 1.19 ± 0.13 |
| DVLKDGENNINFQKASA [BRN1] | 3.31 ± 0.16 | 3.4 ± 0.12 | 3.51 ± 0.077 | 3.31 ± 0.11 |
| LNDEYNYPQLTEDILKE [YCS4] | 2.91 ± 0.15 | 3.12 ± 0.099 | 3 ± 0.071 | 3.49 ± 0.085 |
| SVPEGTIVSNVEEKPGD [RPL2A] | 3.23 ± 0.1 | 3.02 ± 0.082 | 3.39 ± 0.059 | 3.39 ± 0.11 |
| NTEGSVVYEDSLELEKV [SNF2] | 2.98 ± 0.063 | 2.94 ± 0.062 | 2.48 ± 0.095 | 3.01 ± 0.095 |
| QPQQSTIGGGLFGNKPT [YGR119C/NUP57] | 2.75 ± 0.087 | 2.73 ± 0.15 | 3.55 ± 0.15 | 1.38 ± 0.19 |
| SPMGAQPSYNSAIIENA [GAL11] | 2.88 ± 0.074 | 2.96 ± 0.071 | 2.5 ± 0.1 | 2.73 ± 0.045 |
| AFTCFCIKKIMENNEPA [SRB8] | 2.21 ± 0.062 | 2.64 ± 0.077 | 2.38 ± 0.09 | 2.15 ± 0.079 |
| PKVTPQMMQQAQQKLKQ [SRP54] | 1.42 ± 0.25 | 1.18 ± 0.18 |  | 1.48 ± 0.24 |
| VKALRNVPGVETANVAS [RPL4A] | 2.76 ± 0.069 | 3.15 ± 0.062 | 2.98 ± 0.051 | 3.01 ± 0.048 |
| KNHTHNLPGNITVVLGV [RRP4] | 2.3 ± 0.14 | 2.68 ± 0.084 | 2.32 ± 0.17 | 2.66 ± 0.078 |
| LAKERQKLWLLECQLFP [SSN8] | 2.06 ± 0.057 | 1.85 ± 0.052 | 1.47 ± 0.1 | 2.05 ± 0.047 |
| SRLKALNLQFKAKVDDL [YLR335W/NUP2] | 3.12 ± 0.075 | 3.2 ± 0.091 | 3.05 ± 0.1 | 3.11 ± 0.069 |
| LSTDATSADLKSKAEEL [UBP6] | 3.17 ± 0.24 | 2.64 ± 0.13 | 2.95 ± 0.19 | 3.11 ± 0.21 |
| LNLSLHKLDLAKRNLDA [SMC2] | 2.28 ± 0.046 | 2.78 ± 0.043 | 2.62 ± 0.047 | 2.17 ± 0.029 |
| IIEKITDQILQLLKEDS [RRP45] | 2.35 ± 0.11 | 2.5 ± 0.11 | 2.26 ± 0.14 | 2.37 ± 0.13 |
| LKSSLADVLSILAMTYS [RPN1] | 1.7 ± 0.062 | 2.02 ± 0.12 | 1.89 ± 0.19 | 1.96 ± 0.059 |
| TGRMRYLKHVSRRFKNG [RPL37A] | 2.67 ± 0.059 | 3.25 ± 0.042 | 3.44 ± 0.048 | 3.38 ± 0.047 |
| PIPFEFQAVIQKSINHP [SNF2] | 2.67 ± 0.11 | 2.61 ± 0.081 | 2.37 ± 0.077 | 2.86 ± 0.057 |
| INYQVDSKLLPKNIEPP [SWI3] | 2.92 ± 0.083 | 2.81 ± 0.1 | 2.58 ± 0.064 | 2.65 ± 0.066 |
| YSDIGGLESQIQEIKES [RPT2] | 1.8 ± 0.095 | 1.97 ± 0.08 | 1.88 ± 0.096 | 2.52 ± 0.091 |
| PFNQGSKQDVEALIEFI [FAS2] | 3.08 ± 0.073 | 3.15 ± 0.076 | 3.01 ± 0.079 | 3.08 ± 0.061 |
| PSRRERRREQTTYSVDD [ISW2] | 2.65 ± 0.26 | 3 ± 0.062 | 3.22 ± 0.17 | 2.35 ± 0.14 |
| ATGISGSVSEETELFEP [ECM29] | 3.22 ± 0.083 | 3.16 ± 0.054 | 3 ± 0.08 | 3.04 ± 0.067 |
| SLILKESGSTPISISNA [YAR002W/NUP60] | 1.2 ± 0.085 | 1.62 ± 0.1 | 1.45 ± 0.11 | 1.23 ± 0.1 |

| Sequence | protein stability index (doa10∆) | protein stability index (pdr5∆) | protein stability index (san1∆) | protein stability index (ubr1∆) |
| --- | --- | --- | --- | --- |
| PSHEKLKESYSQKHNGR [CDC53] | 3.23 ± 0.13 | 3.13 ± 0.071 | 2.94 ± 0.047 | 3.04 ± 0.08 |
| EKSLLPKIETNVYVGMT [ISW2] | 2.92 ± 0.13 | 2.97 ± 0.11 | 3.07 ± 0.098 | 3.2 ± 0.1 |
| KISLRDICLKLNLDSEQ [RPN3] | 3.46 ± 0.12 | 3.34 ± 0.093 |  | 3.32 ± 0.11 |
| SLASCLRSTEYSKSFEQ [POP1] | 2.58 ± 0.11 | 2.88 ± 0.13 | 2.89 ± 0.083 | 2.76 ± 0.12 |
| AEFKKENLADLDYQIGN [LIN1] | 3.29 ± 0.086 | 3.32 ± 0.068 | 3.24 ± 0.057 | 3.26 ± 0.071 |
| KLLAKELEEQESESERK [SMC2] | 2.71 ± 0.13 | 3.23 ± 0.089 | 2.46 ± 0.16 | 3.14 ± 0.1 |
| KLKNNASRSQLEKGEIE [YJL039C/NUP192] | 3.18 ± 0.11 | 2.98 ± 0.1 | 2.66 ± 0.083 | 3.08 ± 0.087 |
| RKFERARGRRRSKGFKV [RPL18A] | 3.28 ± 0.1 | 3.24 ± 0.094 | 3.54 ± 0.12 | 3.15 ± 0.059 |
| VTGASQFQRLAPSLTVP [PRE2] | 2.01 ± 0.096 | 1.25 ± 0.095 | 1.36 ± 0.2 | 1.67 ± 0.089 |
| KLLTPQDMEAAKEVYKI [GAL11] | 3.13 ± 0.14 | 3.33 ± 0.14 | 3.43 ± 0.084 | 3.49 ± 0.11 |
| GHIGAYLIVAGVDPTGS [PUP1] | 1.48 ± 0.1 | 1.83 ± 0.093 | 1.68 ± 0.16 | 1.65 ± 0.11 |
| QLESYEYMVQYIDEMYN [RRI1] | 2.74 ± 0.052 | 2.89 ± 0.075 | 3.27 ± 0.14 | 2.42 ± 0.071 |
| ISLRNNHKIIARVKAFD [SMD2] | 1.79 ± 0.044 | 2.02 ± 0.038 | 2.49 ± 0.051 | 2 ± 0.041 |
| VPRTADRSASRAVFLFR [RPC82] |  | 3.53 ± 0.2 |  | 3.04 ± 0.17 |
| NTQPSASGFGFGGSQPN [YGR119C/NUP57] | 3.18 ± 0.18 | 2.72 ± 0.15 | 2.84 ± 0.12 | 2.77 ± 0.13 |
| EIINNKTSSQTSLSSKD [YMR153W/NUP53] | 2.33 ± 0.067 | 2.12 ± 0.073 | 2.34 ± 0.12 | 2.45 ± 0.045 |
| QTPAEKHAFMGTLKKDL [RPL3] | 3.08 ± 0.17 | 3.21 ± 0.062 | 2.96 ± 0.11 | 2.96 ± 0.093 |
| TKNGTPNPNNMKTVQSP [GAL11] | 2.96 ± 0.086 | 2.92 ± 0.081 | 2.77 ± 0.062 | 2.91 ± 0.066 |
| DGGKTLRACAANVDQIS [YMR129W/POM152] | 2.15 ± 0.13 | 2.94 ± 0.11 | 2.94 ± 0.13 | 2.37 ± 0.11 |
| QLGLQTVIRGNSIISLE [SMX2] | 2.22 ± 0.093 | 2.57 ± 0.077 | 2.47 ± 0.07 | 2.25 ± 0.058 |
| KDWTDTFVYILEKLIFD [SRB8] | 2.39 ± 0.067 | 2.72 ± 0.058 | 2.73 ± 0.074 | 1.93 ± 0.052 |
| GIDPQDLKKLNLNVYIQ [CDC53] | 1.68 ± 0.14 | 1.7 ± 0.12 | 1.42 ± 0.1 | 1.19 ± 0.083 |
| EIMEERNVEQKLNELDE [NNF1] | 3.11 ± 0.08 | 2.94 ± 0.077 | 3.13 ± 0.052 | 3.27 ± 0.045 |
| PQALRVLRLKPGRKYTT [RPL16A] | 2.97 ± 0.044 | 3.05 ± 0.046 | 3.13 ± 0.046 | 3.21 ± 0.05 |
| CLSDYTKKISNFNSSLH [YJL039C/NUP192] | 1.56 ± 0.061 | 2.04 ± 0.057 | 1.72 ± 0.083 | 1.25 ± 0.036 |
| AYELRTKSKEQLASQLV [RPL35A] | 3.02 ± 0.11 | 3.29 ± 0.091 | 2.93 ± 0.067 | 3.15 ± 0.13 |
